US20250163169

How the values were obtained:
[1] = test system: 43-mer covering the stalk region of CD95L (residue 103 to residue 145)
43-mer covering the stalk region of CD95L (residue 103 to residue 145), sequence (chain, as listed by the source): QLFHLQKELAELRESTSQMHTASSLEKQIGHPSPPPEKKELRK

MMP3, sequence (chain, as listed by the source): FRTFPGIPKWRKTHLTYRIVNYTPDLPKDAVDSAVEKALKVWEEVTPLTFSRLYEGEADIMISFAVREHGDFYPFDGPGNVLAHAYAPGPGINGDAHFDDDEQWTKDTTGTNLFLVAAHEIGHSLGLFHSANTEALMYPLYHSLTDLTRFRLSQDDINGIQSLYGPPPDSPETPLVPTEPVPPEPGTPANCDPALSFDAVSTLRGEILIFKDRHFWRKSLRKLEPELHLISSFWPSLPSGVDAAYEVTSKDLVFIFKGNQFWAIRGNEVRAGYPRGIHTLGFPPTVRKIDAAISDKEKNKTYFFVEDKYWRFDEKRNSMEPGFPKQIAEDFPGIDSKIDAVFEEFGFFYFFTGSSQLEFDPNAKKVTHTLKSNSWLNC
Recombinant Ig-CD95L, sequence (chain, as listed by the source): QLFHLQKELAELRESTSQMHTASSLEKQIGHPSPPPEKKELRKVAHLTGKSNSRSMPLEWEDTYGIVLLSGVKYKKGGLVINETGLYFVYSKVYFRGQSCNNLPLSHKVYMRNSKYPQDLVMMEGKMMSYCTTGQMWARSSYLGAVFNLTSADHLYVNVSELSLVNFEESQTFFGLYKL

MMP3
percentage of degradation of the 43-mer (LC-MS/MS) [1]: more of 20% of cleavage
cleavage of Ig-CD95L (western blotting) (Recombinant Ig-CD95L): Using this Ig-CD95L, we showed that MMP2 and MMP3 can cleave CD95L
